The nanobody polyreactivity screen of Harvey et al. (2022)

Experiment: yeast display, Sf9 membrane polyspecificity reagent, FACS + sequencing; frameworks hold sequencing errors
In short: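 Nanobodies came from a synthetic yeast display library in Saccharomyces cerevisiae BJ5465, induced with galactose for 36–48 hours and stained for 1 hour at 4 °C with 10% biotinylated, detergent-solubilized Sf9 membrane reagent. Cells were enriched on streptavidin microbeads and then FACS-sorted, with low and high (top ~1%) gates set on anti-HA fluorescence for expression and streptavidin fluorescence for reagent binding. Each polyreactivity label reflects the gate a clone came from. Genes were amplified by colony PCR, sequenced by MiSeq 2 × 250 and filtered by CDR length.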

| Sequence | polyreactivity (PSR sort gate) |
| --- | --- |
| QVQLVESGGGLVQAGGSLRLSCPASGIIFYRYSMGWKRQAPGKERQFVAAISRGGGSTYYADSVKGRFTISRDNAKNTFYLQMNSLKPEDTAVYYCNARDTRVTVDQYSIKRMDYWGKGTQVTVSS | high polyreactivity |
| QVQLVESGGGLVQAGGSLRLSCAASGRTIWYYAMGWYRQAPGKESELVAAISWSGGTTFYADSVKGRFTISRDNAKYTVYLQMNSLKPEDTAVYYCAKKCIGYQEWIHSTRRYDYWGQGTQVTVSS | low polyreactivity |
| QVQLVESGGGLVQAGGSLRLSCAASGSICYSNARGWYRQAPGKERELVAAISFTGGTTYNADSVKGRFTISRDNAKNTVYLQMNSLKPEDTAVYFCNKLYHHYYGYWGQGTQVTVSS | high polyreactivity |
| QVQLVESGGGIVQAGGSLRLSCAASGITLINYAMGWYRQAPGKERELVAAISTSGSSTYYADSVKGRFTISRDNAKNTVYLQMNSLKPEDTAVYYCAAELDVYSLFGYWGQGTQVTVSS | low polyreactivity |
| QVQLVESVGGLVQAGGSLRLSCAASGSIFGVYAMGWYRQAPGKERELVATISRSGAITYYADSVKGRFTISRDNAKNTVYLQMNSLKPEDTAVYYCAADFFSREWGQGTQVTVSS | low polyreactivity |
| QVQLGESGGGLVQAGGSLRLSCAASGSIYVNAMGWYRQAPRKERELVAVISKSGGSTYYADSVKGRFTISRDNAKNTVYLQMNSLKPEETAVYYCAASRPSPGPRYGYWGQGTQVTVSS | high polyreactivity |
| QVHLVESGGGLVQAGGSLRLSCAATGSTFPNAMGWYRQAPGKERELVAAITYGGGSTYYADSVKGRFTISRDNAKNTVYLQMNSLIPEDTAVYYCNAPSRLSTIFYSGYDYWGQGTQVTVSS | low polyreactivity |
| QVQLVESGGGLVQAGGSLRLSCPASGYIFYYNAMGWYRQAPGKERELVAAITSDDSTYYADSVKGRFTISRDNANNTVYLQMNSLKQEDTAVYYCNSVRYGHWYDYWGQGTQVTVSS | low polyreactivity |
| QVQLVESGGGLVQAGGSLRLSCAASGFIFPANAMGWSRQAPGKERELVAAINYSGGSTYYADSVKGRFTISRDNAKNTVYLQMNSLKPEDTAVYYCNADFYVVGVTTVDLSGYDSWGQGTQVTVSS | low polyreactivity |
| QVQLVESGGGLVQAGGSLRLSCAASGRTFTDNAMGWYRQAPGKERELVAAISRRGGSTYYADSVKGRFTISRDNAKNTVYLQMNSLKPEDTAVYYCARASRDIRPYDYWGQGTQVTVSS | high polyreactivity |
| QVQLVESGGGLVQAGGILRLGCAASGSTFAWNAMGWYRPAPGKERELVATISRSGSTNYADSVKGRFTISRDNAKNTVYLQMNCLKPEVTAVYYCARDKRYYRQYYYHTRYYYWGQGTQVTVSS | high polyreactivity |
| QVQLVESGGGLVQAGGSLRLSCAASGSIFWGYDMGWYRQAPGKERELVARISYSGGSTSYADSVKGRFTISRDNAKNTVYLQMNSLKPEDTAVYYCAADEGGFWWTYPYDSWGQGTQVTVSS | low polyreactivity |
| QVQLVESGGGLVQAGGSLRLSCAASGSTFSPYAMGWYRQAPGKERELVAAITGSTGSTYYAESVKGRFTISRDNAKNTVYLQMNSLKPEDTAVYYCAAVSSNARHVSRRRGYYWGQGTQVTVSS | high polyreactivity |
| PVQLVESGGGLVQAGGSLRLSCAACGRIFRYYAMGWYRQAPGKERELVAAISRSGGRTYYADSVKGRFTISRDNAKNTVYLEMNSLKPEDTAVYYCNALYYKYYPSRYDYWGLGTQVTVSS | high polyreactivity |
| QVQLVESGGGLGQAGGSLRLSCAASGSIFGKNAMGWYRQAPGKETELVAAITWSGGSTYYADSVKGRFTISRDNAKNTVYLQLNSLKPEDTAVYYCNAVRVRVTSHRFRQLDYGYWGQGTQVTVSS | low polyreactivity |
| QVHLVESGGGLVQAGCSLRLSCAASGSTIYRYAMGWYRQAPGKERELVASINGGDDTYYADSVKGRFTISRDNAKNNVYLQMTSLKPEDTAVYYCAAEVYGSWPFDTYYYWGQGTQVTVSS | high polyreactivity |
| QVQLVESGGGLVQAGGSLRLSCAASGRTFGRYVMGWYRQAPGKERELVAAIRSRGGSTYYADSVKGRFTISRDNAKNTVYLQMNSLKPEDTAVYYCNAVDRKPYRTYDYWGQGTQVTVSS | high polyreactivity |
| QVQLVESGGGLVQAGGSLRLSCAASGLTFAINTMGLNRQAPGKESELVAAITGSGGSTYYADSVKGRFTISRDNAKYTVYLQMKSLKPEDTAVYYCAAELLYVQGYAMDFWGQGTQVTVSS | low polyreactivity |
| QVQLVESGGGLVQAGGSLRLSCAASGSIFGVNAMGWYRQTPGKERELVARINWSSGRTYYADSVKGRFTISRDNAKNTVYLQMNSLKQEDTAVYYCAAAYWRPGVRFFGPYDYWGQGTQVTVSS | high polyreactivity |
| QVQLVESGGGLVQAGGSLRLSCAASGRTSYINAMGWYRPAPGKERELVAAITVRAGRTYYADSVKGRFTISRDNANKTVYLQMNSLKPEDTAVYYCAAGVSEGSGDLYYWGQGTQVTVSS | low polyreactivity |
| QVQLVESGGGLVQAGGSLRLSCASSGRIFRVNGMGWYRQAPGKESELVATITGSGGSTYYADSVKGRFTISRDNAKNTVYLQMNSLKPEDTAVYYCAAVSYWPTDRYYSWGQGTQVTVSS | low polyreactivity |
| QVQLVESGGGLVQAGGSLRLSCAASGSTFGRYAMGWYRQARGKERELVAAISYGDGSTYYADSVKGRFTISRDYAKNTVYLQINSLIPEDTAVYYCATETETYSCWDPVWADDYDYWGQGTQVTVSS | low polyreactivity |

| Sequence | polyreactivity (PSR sort gate) |
| --- | --- |
| QVQLVESGGGLVQAGGSLRLSCAASGIFDRYAMGWYRQAPGKERELVAAISYNAGSTYYADSVKGRFTISRDNAKNTVYLQMNSLKPEDTAVYYCAARGFGTVNGKLYGYWGQGTQVTVSS | high polyreactivity |
| QVQLVESGGGLDQAGGSVRLSCAASGSTFDNYAMGWYRQAPGKEREWVAVISRSGTSTYYADSVKGRFTISRDNAKNTVYLQMNSLKPEDTAVYYCASAPSQVYRARFYYWGQGTQVTVSS | high polyreactivity |
| QVQLVESGGGLVQAGGSLRLSCAASGFTFYYNAMGWYRQAPGKERELVASITRSGGRTYYADSVKGRFTISRDNAKNTVYLQMNSLKPEDTAVYYCARRYPGGYYWGQGTQVTVSS | high polyreactivity |
| QVQLVESGGGLVQAGGSLRLSCAASGRTFRYYAMGWYRQAPGKERELVAAITSADSTNYADSVKGRFTISRDNAKNTVYLQMNSLKPEDTAVYYCAAGYVYQAAAKYGRIFWGYDSWGQGSQVTVSS | low polyreactivity |
| QVQLVESGGGLVQAGGSLRLSCAASGSTFYIYAMGWYRQAPGKERELVAAISWRGGRTYYADSVKGRFTISRDNAKNTVYLQMNSLKPEDTAVYYCAAAYLRWSGTYYYVDGYDYWGQGTQVTVSS | high polyreactivity |
| QVQLVESGGGLVQAGGRLRLSCAASGFIYENAMGWYRQAPGKERELVAAISYSGGCTYYADSVKGRFTISRDNAKNTVYLQMNSLKPEDTAVYVCAADTQGYDYDYWGQGTQVTVSS | low polyreactivity |
| QVQLVESGGGLVQAGGSLRLSCAASGFTLRVNDMGWYRQAPGKERELVAGITVSGGSTYYADSVKGRFTISRDNAKNTVYLQMNSLKPEDTAVYYCNADNYENATGMDYWGQGTQVTVSS | low polyreactivity |
| QVQLVESGGGLVQAGGSLRLSCAASGFTSGQYAMGWYRQAPGKERELVAAISWSGGSTYYADSVKGRFTISRDNAKNTVYLQMNSLKPEDTAVYYCAAGKTPQKYGGFNYWGQGTQVTVSS | high polyreactivity |
| QVQLVESGGGLVQAGGSLRLSCAASGRIFYFYAMGWYRQAPGKERELVAVISYGGDRTSYADSVKGRFTISRDNAKNTVYLQMNSLKPEDTAVYYCAARPFYRGYYYWGQGTQVTVSS | high polyreactivity |
| QDQIVESGGGLVQAGGSLRLIFAASGLTIARNAMGWYRQAPGKERELVAAISFSGGSTYYADSVKGRFTISRDNAKNTVYLLMNSLKPEDTAVYYCNTLLRRDFNYWGQGTQVTVSS | high polyreactivity |
| QVQLVESGGGLVQAGGSLRLSCAASGSTFNGYAMGWYRQAPGKERELVAAISSRSGRTYYADSVKGRFTISRDNAKNTVYLQMNSLKPEDTAVYYCAAYNGSRRQEFDYWGQGTQVTVSS | high polyreactivity |
| QVQLEESRGGLVQAGGSLRLSCAASGNIFGSNAMGWYRQAPGKERGLVAAISGSNGGTYYADSVKGRFTISRDYAKNTVYLQMNSLTPEDTAVYFCAAVWYLEDHHDYYYWGQGTQVTVSS | low polyreactivity |
| QVQLVESGGGLVQSGGSLRLSCAASGSTFSINAMGWYRQAPGKERELVAAITWRGVRTYYADSVKGRFTITRDNAKNTVYFQMNSLKPEDTAVYYCAADVVVAGHPGFDYWGQGTQVTVSS | high polyreactivity |
| QVQLVKSGGGLVQAGGSLRLSCAASGTFRLYAMGWYRQAPGKERDFVAAITYGGVGTYYADSVKGRFTISRDNAKHTVYLQMNSLNPEDTAVSYCAAELYLTDTDVEYSYWGQGTQVTVSS | low polyreactivity |
| QVQLVESGGGLVQAGGSLRLSCAASGITFTGYDMGWYRQAPGIERELVADISNGSSTDYADSVKGRFTISRDNAKNTVYFQMISLKPEDTAVYYCAVDIDNWSEYDYWGHGTQVTVSS | low polyreactivity |
| QVQLVESGVGLDKAGGSLRLISAASGRILWYNAMGLYRQAPGKEREFVARISISTASTYYADSVKGRFTISRDNAKNTVFLQMNSLKPEDTAVYYCAGKPWRTVPYYYWGQGTQVSVSS | high polyreactivity |
| QVQLVESGGGLVQAGGSLRLSCAASGITFRYYAMGWYRQAPGKERELVATINWSGGTTHYADSVKGRFTISRENAKNTVYLQMNSLKPEDTAVYYCAADPWQYKLGWPPFTYDYWGQGTQVTVSS | high polyreactivity |
| QVQLVESGGGLVQAGGSLRLSCAASGFTFYTYAMGWYRQAPGKERELVAAITGSGGRTYYADSVKGRFTISRDNAKTTVYLQMNSLKPEDTAVYYCAALYVYRPRTPYGYWGQGTQVTVSS | high polyreactivity |
| QVQLVESGGGLVQAGGSLRLSCAASGRIFYQYAMGWYRQAPGKERELVAAISWSGGNTYYADSVKGRFTISRDNAKKTVYFQMNSLKPEDPAVYYCNRYWYRDRLWLYDYWGQGTQVTVSS | high polyreactivity |
| QVQLVESGGGLVQAGGSLRLSCAASGRIFTYYTMGWYRQAPGKERELVAAISYSGRTYYADSVKGRFTISRDNAKNTVYLQMNSLKPEDTAVYYCNAARPRGYGFDYWGQGTQVTVSS | high polyreactivity |
| QVQLQESGGGQVQAGGSLRLSCAASGYMSTHYFMGWYRQSPGKDREFVAGISNGSITNYADSVKGRFTISRDNARNTVYLQMNSLKPEYTAVYYGAAFEWTYVRFGYWGQGTQVTVSG | high polyreactivity |
